In PMC5927468, “A noncanonical role for dynamin-1 in regulating early stages of clathrin-mediated endocytosis in non-neuronal cells” (PLoS Biology, 2018):

What was measured:
Dyn1a^WT-eGFP = molecular target: T1, Dyn1a^WT-eGFP (UniProt Q05193 1-864); test: co-IP; GFP-nAb agarose, 0.5 mg A549 post-nuclear fraction, 2 h at 4 °C; beads washed with buffer 3 (0.5% Triton X-100, 25 mM HEPES, 150 mM KCl, 1 mM MgCl2, 2 mM EGTA, pH 7.4); immunoblot; details: partners not purified
T1 construct: dynamin-1 cDNA, C-terminal splice variant "a" (Dyn1a), in the retroviral vector pMIEG; also called Dyn1a-eGFP; Dyn1-eGFP; source: A549 Dyn1^KO cells, retroviral transduction, in lysate (post-nuclear fraction); not shown: eGFP, C-terminal, kept
T1 sequence (looked up): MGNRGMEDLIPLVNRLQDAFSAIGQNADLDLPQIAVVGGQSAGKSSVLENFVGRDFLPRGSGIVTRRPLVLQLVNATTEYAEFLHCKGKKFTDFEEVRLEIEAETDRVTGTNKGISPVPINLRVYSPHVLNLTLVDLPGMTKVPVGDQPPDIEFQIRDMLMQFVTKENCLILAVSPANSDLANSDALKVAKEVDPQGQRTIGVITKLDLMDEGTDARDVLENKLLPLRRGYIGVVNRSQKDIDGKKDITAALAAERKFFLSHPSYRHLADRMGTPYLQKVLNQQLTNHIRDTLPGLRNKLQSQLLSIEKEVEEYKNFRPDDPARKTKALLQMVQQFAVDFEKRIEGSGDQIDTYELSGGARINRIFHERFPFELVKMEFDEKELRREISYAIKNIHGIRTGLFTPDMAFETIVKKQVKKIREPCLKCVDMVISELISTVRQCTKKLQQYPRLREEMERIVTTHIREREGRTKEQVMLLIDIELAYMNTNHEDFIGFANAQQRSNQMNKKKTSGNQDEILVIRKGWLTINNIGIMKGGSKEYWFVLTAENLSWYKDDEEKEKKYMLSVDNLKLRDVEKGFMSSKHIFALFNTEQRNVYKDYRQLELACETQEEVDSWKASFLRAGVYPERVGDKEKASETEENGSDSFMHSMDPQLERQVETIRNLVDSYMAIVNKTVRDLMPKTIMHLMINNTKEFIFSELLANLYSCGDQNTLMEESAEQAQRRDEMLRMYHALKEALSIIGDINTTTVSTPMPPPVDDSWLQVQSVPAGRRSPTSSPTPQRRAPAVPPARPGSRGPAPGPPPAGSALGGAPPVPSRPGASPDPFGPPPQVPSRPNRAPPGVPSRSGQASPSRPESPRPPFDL

Dyn1a^S774/8A-eGFP = molecular target: T2, Dyn1a^S774/8A-eGFP (UniProt Q05193 1-864, S774/8A | S774/8A); test: as above; details: partners not purified
T2 construct: dynamin-1 cDNA, C-terminal splice variant "a" (Dyn1a), in the retroviral vector pMIEG, with S774 and S778 changed to alanine; also called Dyn1^S774/8A-eGFP; Dyn1^S774/8A; source: A549 Dyn1^KO cells, retroviral transduction, in lysate (post-nuclear fraction); not shown: eGFP, C-terminal, kept
T2 sequence (looked up): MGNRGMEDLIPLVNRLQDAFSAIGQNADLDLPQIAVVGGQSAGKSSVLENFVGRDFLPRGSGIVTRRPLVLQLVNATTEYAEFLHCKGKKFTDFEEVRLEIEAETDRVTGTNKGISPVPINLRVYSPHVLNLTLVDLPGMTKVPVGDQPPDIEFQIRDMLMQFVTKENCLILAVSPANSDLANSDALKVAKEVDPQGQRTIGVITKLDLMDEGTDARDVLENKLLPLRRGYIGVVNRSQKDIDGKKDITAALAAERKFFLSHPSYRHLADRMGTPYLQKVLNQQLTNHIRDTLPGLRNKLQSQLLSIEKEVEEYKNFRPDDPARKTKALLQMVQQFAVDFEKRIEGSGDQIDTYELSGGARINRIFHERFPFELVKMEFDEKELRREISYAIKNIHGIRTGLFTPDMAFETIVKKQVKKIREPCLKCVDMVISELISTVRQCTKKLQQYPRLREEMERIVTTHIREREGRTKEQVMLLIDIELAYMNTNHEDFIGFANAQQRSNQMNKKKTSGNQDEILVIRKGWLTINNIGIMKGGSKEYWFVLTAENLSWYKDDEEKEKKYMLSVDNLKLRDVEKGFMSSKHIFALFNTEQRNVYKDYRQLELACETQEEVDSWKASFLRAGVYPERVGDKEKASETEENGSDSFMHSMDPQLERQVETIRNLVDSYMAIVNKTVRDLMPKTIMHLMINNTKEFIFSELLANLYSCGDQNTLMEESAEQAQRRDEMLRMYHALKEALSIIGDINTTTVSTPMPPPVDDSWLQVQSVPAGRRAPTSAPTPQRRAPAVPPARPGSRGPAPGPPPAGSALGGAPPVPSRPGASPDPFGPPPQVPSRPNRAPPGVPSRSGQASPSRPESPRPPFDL

ratio of SNX9 binding to Dyn1 versus Dyn2 (Dyn1a^WT-eGFP): 1.7
ratio of SNX9 binding to Dyn1^S774/8A versus Dyn1^WT (Dyn1a^S774/8A-eGFP): 3.6
B1: sorting nexin 9, endogenous in A549 cells (natural protein, human (endogenous in A549), UniProt Q9Y5X1 1-595, looked up)
chain: MATKARVMYDFAAEPGNNELTVNEGEIITITNPDVGGGWLEGRNIKGERGLVPTDYVEILPSDGKDQFSCGNSVADQAFLDSLSASTAQASSSAASNNHQVGSGNDPWSAWSASKSGNWESSEGWGAQPEGAGAQRNTNTPNNWDTAFGHPQAYQGPATGDDDDWDEDWDGPKSSSYFKDSESADAGGAQRGNSRASSSSMKIPLNKFPGFAKPGTEQYLLAKQLAKPKEKIPIIVGDYGPMWVYPTSTFDCVVADPRKGSKMYGLKSYIEYQLTPTNTNRSVNHRYKHFDWLYERLLVKFGSAIPIPSLPDKQVTGRFEEEFIKMRMERLQAWMTRMCRHPVISESEVFQQFLNFRDEKEWKTGKRKAERDELAGVMIFSTMEPEAPDLDLVEIEQKCEAVGKFTKAMDDGVKELLTVGQEHWKRCTGPLPKEYQKIGKALQSLATVFSSSGYQGETDLNDAITEAGKTYEEIASLVAEQPKKDLHFLMECNHEYKGFLGCFPDIIGTHKGAIEKVKESDKLVATSKITLQDKQNMVKRVSIMSYALQAEMNHFHSNRIYDYNSVIRLYLEQQVQFYETIAEKLRQALSRFPVM
notes: sorting nexin 9, endogenous; also called SNX9; source: endogenous, A549 (Dyn1^KO or Dyn2^KO, reconstituted) lysate
